From patent publication US20260216354A1, “ANTI-CMET ANTIBODY, ANTIBODY-DRUG CONJUGATE, AND PREPARATION METHOD THEREFOR AND USE THEREOF” (MEDILINK THERAPEUTICS (SUZHOU) CO., LTD., priority 2022, published 2026)
Positions count from the first letter of the chain named.

B1: 45A5G10: murine-derived anti-cMET monoclonal antibody; VL SEQ ID NO: 1, VH SEQ ID NO: 2 (antibody, V domains shown)
VH: EVRLEESGGGFVQPGGSMKISCVASGFTFSNYWMNWVRQSPEKGLEWVAQIRLKSLNYATHYAESVKGRFTISRDDSRNSVYLQMNNLRAEDAGIYYCTEEGFAYWGRGTLVTVSA
VL: IVMTQSPASLPVSLGQRATISCRASESVDDYGVSFVNWFQQKPGQPPKLLIYTASVQESGVPARFSGSGSGTDFSLNIHPLEEDDTAMYFCQQSKEIPPTFGGGTKLEIK
B2: 41F5B2: murine-derived anti-cMET antibody of Table 1; probably clone 51D5B2 (VL SEQ ID NO: 7, VH SEQ ID NO: 8) (antibody, V domains shown)
VH: B1 VH with E6D
VL: B1 VL with S75R
B3: 55A10G6: murine-derived anti-cMET monoclonal antibody; VL SEQ ID NO: 3, VH SEQ ID NO: 4 (antibody, V domains shown)
VH: QIQLQQSGPELVKPGASVKISCKASGYTFTDYYLNWVRQRPGQGLEWIGWIFPGSGNTKYIEKFKGKATLTVDTSSSTAYMLLSSLTSEDSAVYFCAGGDYGGFTYWGQGTLVAVSA
VL: DIQMTQSPPSLSASVGETVTITCGASENIYGALNWYQRKQGKSPQLLIYGATNLAAGMSSRFSGSGSGRQFSLKISSLHPDDVATYYCQNVLSEPLTFGAGTKLELK
B4: 44H10E8: murine-derived anti-cMET monoclonal antibody; VL SEQ ID NO: 5, VH SEQ ID NO: 6 (antibody, V domains shown)
VH: QVHLQQSGAELARPGASVKMSCKASGYTFISYTIHWVKQSPGQGLEWIGYINPSSGYAKNNPKFQDKATLTADTSSTTAYIQLSSLTSEDSAVYYCTRPYGDFVDWYFDVWGTGTTVTVSS
VL: NIMMTQSPSSLAVSAGEKVTMNCKSSQSVLYFSNQKNCLAWYQQKPGQSPKLLIYWASTRESGVPDRFTGSGSGTDFTLTISSVQADDLAVYYCQQYLSSLTFGAGTKLELK

Target: T1, cMet-ECD-hFc (Homo sapiens, UniProt P08581)
T1 construct: made in house; host or cells: HEK293E
Assay: ELISA affinity of murine-derived antibodies to human MET-ECD-hFc
Assay type: binding
Description: (§1) 4 mice, all female, are selected from each of strains of CDT (Vital River), KM (Vital River), and Balb/c (Gempharmatech Co., Ltd.), and are enrolled into a group at about 6 weeks old. Immunization is performed using cMET-His and hcMET-mFc (Sichuan Sibowo Biotechnology Co., Ltd.), and after 2 times of booster immunization, serum titers are detected through ELISA. For a mouse with a higher ELISA protein titer, an affinity titer of tumor cells MKN-45 and a competition FACS titer of MKN45-HGF are detected through FACS. Finally, 1 mouse from each of CD1, KM, and Balb/c is selected, and the spleen and lymph node thereof are used to prepare cell suspensions for hybridoma fusion with SP2/0 mouse myeloma cells. ELISA preliminary screening is performed through human hMET-ECD-hFc antigen proteins, and after the preliminary screening, positive hybridomas are selected to be cloned. Hybridoma cells are cultured in a serum-free medium, and a collected monoclonal supernatant is purified through the ProA filler to obtain murine-derived antibodies. Affinities of the murine-derived antibodies to human MET-ECD-hFc and cyno MET-ECD-hFc proteins are detected through ELISA, and the affinity of the murine-derived antibodies to the MKN45 tumor cells and blocking of MKN45-HGF ligand competition is detected through FACS.

T1 sequence (P08581 25-932): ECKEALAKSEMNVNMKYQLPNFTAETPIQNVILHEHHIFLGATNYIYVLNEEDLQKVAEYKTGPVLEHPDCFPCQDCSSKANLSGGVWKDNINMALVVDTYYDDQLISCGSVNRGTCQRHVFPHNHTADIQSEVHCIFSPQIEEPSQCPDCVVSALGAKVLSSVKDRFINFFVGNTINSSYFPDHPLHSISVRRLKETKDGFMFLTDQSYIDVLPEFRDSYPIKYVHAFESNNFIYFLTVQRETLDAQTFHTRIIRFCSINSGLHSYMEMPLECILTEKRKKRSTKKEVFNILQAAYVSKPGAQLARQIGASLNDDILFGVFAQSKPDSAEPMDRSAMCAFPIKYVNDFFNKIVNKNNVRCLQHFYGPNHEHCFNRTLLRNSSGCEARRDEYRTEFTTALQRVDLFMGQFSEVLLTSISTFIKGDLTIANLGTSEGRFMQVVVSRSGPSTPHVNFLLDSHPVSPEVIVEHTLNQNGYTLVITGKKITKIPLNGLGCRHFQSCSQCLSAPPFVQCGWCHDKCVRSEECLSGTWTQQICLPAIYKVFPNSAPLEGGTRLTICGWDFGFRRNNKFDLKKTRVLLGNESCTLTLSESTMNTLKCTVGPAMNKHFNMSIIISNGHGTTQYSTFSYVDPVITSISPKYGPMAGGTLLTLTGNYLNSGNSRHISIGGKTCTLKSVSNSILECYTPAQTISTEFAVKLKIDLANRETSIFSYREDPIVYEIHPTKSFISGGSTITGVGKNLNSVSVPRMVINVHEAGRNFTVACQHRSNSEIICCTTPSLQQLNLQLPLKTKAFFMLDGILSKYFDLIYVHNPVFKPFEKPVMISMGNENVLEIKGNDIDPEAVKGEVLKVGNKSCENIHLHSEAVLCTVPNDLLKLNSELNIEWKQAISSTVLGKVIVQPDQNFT

| Molecule | cMet-ECD-hFc (EC50 = ng/ml) |
| --- | --- |
| B1 | 6.387 ng/mL |
| B2 | 4.807 ng/mL |
| B3 | 7.701 ng/mL |
| B4 | 15.76 ng/mL |

Target: T2, MKN45-HGF (Homo sapiens, UniProt P08581)
T2 construct: MKN45 cells expressing c-MET antigens; endogenous in cells; host or cells: MKN45
Assay: FACS blocking of MKN45-HGF ligand competition (murine-derived antibodies)
Assay type: binding
Description: as §1

T2 sequence (P08581 25-1390): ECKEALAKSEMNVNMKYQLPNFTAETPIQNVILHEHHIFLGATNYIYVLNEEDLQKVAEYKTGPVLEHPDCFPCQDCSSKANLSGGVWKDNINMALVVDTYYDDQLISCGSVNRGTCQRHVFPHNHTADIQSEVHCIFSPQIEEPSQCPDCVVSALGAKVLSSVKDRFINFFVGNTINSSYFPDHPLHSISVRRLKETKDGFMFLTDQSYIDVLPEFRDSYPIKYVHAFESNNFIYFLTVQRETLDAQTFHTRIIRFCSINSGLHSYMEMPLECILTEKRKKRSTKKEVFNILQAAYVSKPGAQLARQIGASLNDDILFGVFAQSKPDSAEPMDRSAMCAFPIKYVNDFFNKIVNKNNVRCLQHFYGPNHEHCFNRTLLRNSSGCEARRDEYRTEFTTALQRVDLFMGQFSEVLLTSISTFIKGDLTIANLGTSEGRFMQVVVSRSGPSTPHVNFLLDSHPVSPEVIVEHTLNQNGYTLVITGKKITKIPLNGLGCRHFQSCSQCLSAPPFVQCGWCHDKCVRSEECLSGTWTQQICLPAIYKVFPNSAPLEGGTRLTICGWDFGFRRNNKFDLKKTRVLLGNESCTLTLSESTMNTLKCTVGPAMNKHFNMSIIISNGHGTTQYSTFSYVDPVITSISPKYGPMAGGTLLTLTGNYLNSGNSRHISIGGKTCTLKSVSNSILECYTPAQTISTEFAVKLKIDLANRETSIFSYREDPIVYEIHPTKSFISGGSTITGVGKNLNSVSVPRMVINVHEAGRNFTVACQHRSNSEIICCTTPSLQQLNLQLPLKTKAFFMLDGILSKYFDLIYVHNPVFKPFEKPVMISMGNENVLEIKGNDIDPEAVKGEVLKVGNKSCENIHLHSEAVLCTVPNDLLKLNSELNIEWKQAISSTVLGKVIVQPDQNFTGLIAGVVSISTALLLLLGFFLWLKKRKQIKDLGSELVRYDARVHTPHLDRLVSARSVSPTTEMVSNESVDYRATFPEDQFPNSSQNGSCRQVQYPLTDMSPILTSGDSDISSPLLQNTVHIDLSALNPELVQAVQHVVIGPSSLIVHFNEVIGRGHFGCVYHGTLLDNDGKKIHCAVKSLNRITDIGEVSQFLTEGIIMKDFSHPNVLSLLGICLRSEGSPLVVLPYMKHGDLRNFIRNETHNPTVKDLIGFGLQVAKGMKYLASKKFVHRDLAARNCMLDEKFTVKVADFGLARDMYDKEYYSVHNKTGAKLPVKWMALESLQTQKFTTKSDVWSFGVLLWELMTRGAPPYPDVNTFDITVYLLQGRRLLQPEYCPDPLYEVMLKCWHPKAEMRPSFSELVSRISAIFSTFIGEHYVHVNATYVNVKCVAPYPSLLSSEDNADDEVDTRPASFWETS

| Molecule | MKN45-HGF competition (IC50 = ng/ml) |
| --- | --- |
| B1 | 53.28 ng/mL |
| B2 | No activity |
| B3 | 31.28 ng/mL |
| B4 | 88.57 ng/mL |

System: MKN45 tumor cells
Assay: FACS affinity of murine-derived antibodies to MKN45 tumor cells
Assay type: binding, human
Description: as §1

| Molecule | MKN45 (EC50 = ng/ml) |
| --- | --- |
| B1 | 41.25 ng/mL |
| B2 | 348.5 ng/mL |
| B3 | 63.08 ng/mL |
| B4 | 149.7 ng/mL |

System: Cyno.cMet-ECD-hFc
Assay: ELISA affinity of murine-derived antibodies to cyno MET-ECD-hFc
Assay type: binding
Description: as §1

| Molecule | Cyno.cMet-ECD-hFc (EC50 = ng/ml) |
| --- | --- |
| B1 | 10.34 ng/mL |
| B3 | 14.9 ng/mL |
| B4 | 25.72 ng/mL |
